The numbers were not newly measured in paper PMC9917595, which cites them from elsewhere.

pKd: −log10 of the molar value.

The target of this series is Endothelin-1 (Homo sapiens) (UniProt P05305). The following applies: cited from earlier work.
Chain of UniProt P05305 (P05305 53-73): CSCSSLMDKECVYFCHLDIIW

By pKd is commonly meant −log10 of the Kd, conventionally taken in molar units. In the case of “Endothelin B receptor (from UniProt P24530)”, the pKd is 10.54.
